Data from patent US20240368663A1, “CELL-FREE BIOPRODUCTION OF B-CRYPTOXANTHIN AND ZEAXANTHIN” (DEBUT BIOTECHNOLOGY, INC., priority 2021, published 2024).

Legend:
[1] = cited from earlier work
[2] = Cell-free conversion of β-carotene to zeaxanthin with cell lysate expressing CrtZ; format: biochemical; conditions: 1.67 mM β-carotene, 24 hours
Procedure: Enzyme Expression and Purification: All genes were synthesized and cloned into expression plasmids and then transformed into E. coli cells for expression. Cells were grown in Terrific Broth media supplemented with 50 μg/mL kanamycin sulfate at 37° C. and 200 rpm until A595=0.6. Cells were cooled to 18° C., protein expression was induced, and the cultures were grown for an additional 18 h. Cell pellets were collected by centrifugation, and then resuspended in a 1.8 mL lysis buffer (50 mM Tris pH 8.5, 150 mM NaCl, 10% Glycerol (v/v)) per gram of cell paste. Cell lysates were prepared by sonication and clarified by centrifugation at 11,000×g for 10 minutes, at 4° C. After clarification, lysate was kept on ice or flash frozen and stored at −80° C. for later use.
Analytical methods: For sampling, 5× volume of THE was mixed with the reaction fluid, followed by high-speed centrifugation. Samples were run on an HPLC system to examine the amount of β-cryptoxanthin and zeaxanthin present in the reaction mixture. The HPLC method was as follows: An Agilent 1200 HPLC was fitted with an Acclaim C-30 Column 250 mm×4.6 mm, 5 μm, equipped with an Acclaim C-30 guard column. The column was heated to 20° C. with the sample block being maintained at 20° C. For each sample, 10 μL was injected and the product was eluted at a flow rate of 1.0 ml/min using Methanol (solvent A) and tert-butyl-methyl ether (solvent B) with the following gradient: 80% A to 65% A for 10 min, 65% A to 10% A for 10 min, 10% A for 5 min, 10% A to 80% for 0.5 min, and 80% A for 5.5 min for column equilibration. The run time was a total of 31 minutes with zeaxanthin eluting at 7.2 mins, β-cryptoxanthin eluting at 12.2 minutes, and β-carotene eluting at 16.9 min. A diode array detector (DAD) was used for the detection of the molecule of interest at 450 nm.
As described herein, β-carotene is hydroxylated by the CrtZ enzyme (CrtZ, EC1.14.15.24) to form β-cryptoxanthin, and then β-cryptoxanthin is hydroxylated by CrtZ to form Zeaxanthin. […]

[3] = 2% polysorbate 20, 6% THE, 0.2 mM FeSO4, 16° C.

Molecule	solubility in water [1]	β-carotene substrate converted into zeaxanthin ([2]; 2% polysorbate 20 (v/v), 6% THE (v/v), 0.2 mM FeSO4, concentrated cell lysate, 16° C.)	zeaxanthin concentration produced [2, 3]	zeaxanthin titer produced [2, 3]
CC1=C(/C=C/C(C)=C/C=C/C(C)=C/C=C/C=C(C)/C=C/C=C(C)/C=C/C2=C(C)C[C@@H](O)CC2(C)C)C(C)(C)CCC1 [β-cryptoxanthin]	insoluble in water	–	–	–
CC1=C(/C=C/C(C)=C/C=C/C(C)=C/C=C/C=C(C)/C=C/C=C(C)/C=C/C2=C(C)CCCC2(C)C)C(C)(C)CCC1 [β-carotene]	insoluble in water	–	–	–
P. ananatis CrtZ: β-carotene hydroxylase enzyme (CrtZ, EC1.14.15.24) from P. ananatis, used as E. coli cell lysate; likely Pantoea WP_013027996.1 (protein, listed as Pantoea sp.) MLWIWNALIVFVTVIGMEVVAALAHKYIMHGWGWGWHLSHHEPRKGAFEVNDLYAVVFAALSILLIYLGSTGMWPLQWIGAGMTAYGLLYFMVHDGLVHQRWPFRYIPRKGYLKRLYMAHRMHHAVRGKEGCVSFGFLYAPPLSKLQATLRERHGARAGAARDAQGGEDEPASGK	–	84 % (molar ratio)	~1.4 mM	796 mg/L
